Experimental findings from patent US20230270119A1, “BIOSTIMULANT AND BIOPROTECTIVE PEPTIDES AND THEIR USE IN AGRICULTURE” (priority 2020, published 2023) are described below.

For one series, the system named is CAT2, SAM and APX2 genes. Put plainly: Salt stress gene expression in tomato plants irrigated with 100 fM peptides. The class given is in vivo. Conditions: femtomolar; for activation of salt stress-responsive genes: 8 days after irrigation, 0 mM NaCl (FIG. 18A1, B1, C1); for tolerance to salt / induction of responsive genes: irrigated 7 days with 150 mM NaCl (FIG. 18A2, B2, C2). Here is the method:
The analysis was carried out on the CAT2(A), SAM (B) and APX2 (C) genes. The asterisks indicate the statistical significance of the data by Student's t-test (*p<0.05; **p<0.01; ***p<0.001). […] An experiment was also set up to verify the efficiency of the peptides PS1-70, PS1-120 and SEQ ID NO.5, when administered at femtomolar concentrations, in promoting tolerance to a high salt stress condition.

The subject of a further series is Botrytis cinerea. Briefly: Botrytis cinerea necrosis areas on treated detached tomato leaves. Format: in vivo, Botrytis cinerea on Solanum lycopersicum. Here is the method:
For the performance of assays on the phytopathogenic Botrytis cinerea and Alternaria alternata fungi, the present inventors used spores of this microorganism obtained from cultures on solid PDA (Potato Dextrose Agar) sporulation substrate. The plates were inoculated with 20 μl of a conidial suspension at a concentration of 1×10^6 spores/ml and incubated for 15 days at 25° C. in the presence of diffused light, so as to obtain complete sporulation. The spores were then collected in 5 ml of sterile water and, in order to remove the mycelium, were filtered through glass wool, washed with sterile distilled water and collected by centrifugation at room temperature. The concentration of spores suitable for inoculation (10^5-10^7 spores/ml) was determined by the serial dilution method using a Burker cell counting chamber for spore counting.
The assay was carried out on a detached leaf by taking a compound leaf for each treated tomato plant and for each control plant. Each leaflet of the compound leaf was marked with 3 markers in order to guide the subsequent application of the spores and detection of the pathogen developing necrotic areas.
The leaves were treated by applying 2 μl of a composition comprising the peptides PS1-70 and PS1-120 of the invention at a concentration of 100 pM, 100 fM or 1×PBS for the control leaves. After 6 hours, the time necessary for the perception of the peptides, the leaves were detached from the plant and inoculations with 10 μl of spore solution were carried out in the internerve spaces and near the previously marked points. Monitoring was carried out by measuring the necrosis areas (expressed in mm^2) 1, 3, 5, 8 days after inoculation of the pathogen. The necrosis areas recorded on the control leaves were much larger than those detected on plants treated with the peptides of the invention. This difference increased as a function of the time elapsed since inoculation. The resistance inducing effect of the picomolar treatment is already statistically significant from the first day of inoculation of the pathogen up to the eighth day where values of 33 mm^2 were reached on the control leaves, unlike the treated leaves where values not exceeding 18 mm^2 were recorded for both peptides (FIG. 12A).

The subject of the next series is S. littoralis larvae. Further details: species or system Spodoptera littoralis. The conditions noted are these: in vivo, po.
Another series has as its system B. cinerea. Put plainly: Seed treatment: B. cinerea necrosis areas on leaves of plants born from treated tomato seeds. The class given is in vivo, Botrytis cinerea on tomato. The conditions noted are these: leaves of 4-week-old plants born from seeds treated at 100 fM; day 8; control 11 mm^2 (FIG. 16). The method, then: The mean necrosis areas were measured 1, 3 and 5 days after inoculation of the pathogen. The letters a, b indicate the statistical significance of the data (ANOVA), each letter representing a statistical group. The present inventors also assessed the protective effect conferred by the treatment with the peptides object of the invention directly on the seed. Tomato seeds were treated with a composition comprising the peptides at a concentration of 100 fM or with 1×PBS for the controls, allowed to dry and germinated in the dark on sterile adsorbent paper at 24° C. 4-week-old plant leaves were detached from the plant and inoculated with 10 μl of spore solution in the internerve spaces and near the previously marked points.

Series [1] relates to cat1, tft1, Sam, HSFA2, HSP70, HSP90, MPK1 and WRKY40 genes. Put plainly: Salt stress gene expression in tomato plants irrigated with 100 pM peptide. The conditions noted are these: 100 pM irrigation. The class given is in vivo. Here is the method: The analysis was carried out on the cat1, tft1, Sam, HSFA2, HSP70, HSP90, MPK1 and WRKY40 genes. The asterisks indicate the statistical significance of the data by Student's t-test (*p<0.05; **p<0.01; ***p<0.001).
An experiment was also set up to verify the efficiency of the peptides PS1-70, PS1-120 and SEQ ID NO.5, when administered at femtomolar concentrations, in promoting tolerance to a high salt stress condition.

The mark [2] stands for this setting: femtomolar, day 8, control 20 mm^2 (FIG. 12B).

B1: PS1-120: recombinant peptide contained in the amino-terminal region of the Prosystemin polypeptide, free of Systemin; expressed in E. coli (protein)
chain: MGTPSYDIKNKGDDMQEEPKVKLHHEKGGDEKEKIIEKETPSQDINNKDTISSYVLRDDTQEIPKMEHEEGGYVKEKIVEKETISQYIIKIEGDDDAQEKLKVEYEEEEYEKEKIVEKET
modifications: Peptide PS1-120
notes: recombinant peptide contained in the amino-terminal region of the Prosystemin polypeptide, free of Systemin; expressed in E. coli
In the case of B1, in the series with CAT2, SAM and APX2 genes, the “activation of salt stress-responsive genes” value is “able to activate a series of salt stress-responsive genes” and the “tolerance to salt / induction of responsive genes” value is recorded as “more salt-tolerant than the untreated control plants”. Moreover, in the series on Botrytis cinerea (setting [2]), the necrosis areas is on record as 5.19 mm^2. The “direct toxic effect on survival and development of larvae” value with S. littoralis larvae was “no effect on their survival and development”. In addition, the necrosis areas with B. cinerea is 7.4 mm^2.

B2: PS1-70: recombinant peptide contained in the amino-terminal region of the Prosystemin polypeptide, free of Systemin; expressed in E. coli (protein)
chain: MGTPSYDIKNKGDDMQEEPKVKLHHEKGGDEKEKIIEKETPSQDINNKDTISSYVLRDDTQEIPKMEHEE
modifications: Peptide PS1-70
notes: as for B1
With B2, in the series with CAT2, SAM and APX2 genes, the “activation of salt stress-responsive genes” value is on record as “able to activate a series of salt stress-responsive genes”. Moreover, the “tolerance to salt / induction of responsive genes” value in the series with CAT2, SAM and APX2 genes is “more salt-tolerant than the untreated control plants”; in series [1] (moderate salt stress 80 mM NaCl (FIG. 17B)) it was “more tolerant to salt than the untreated control plants”. Besides, the necrosis areas came out at 7.69 mm^2 with Botrytis cinerea (100 fM, day 8, control 11.72 mm^2 (FIG. 13)); 6.69 mm^2 in the series with Botrytis cinerea (setting [2]); 7.1 mm^2 in the series with B. cinerea. Moreover, in the series with S. littoralis larvae, the “direct toxic effect on survival and development of larvae” value is “no effect on their survival and development”. Moreover, in series [1] (48 hours, 0 mM NaCl (FIG. 17A)), the “activation of salt stress-responsive genes and transcription factors” value was “able to activate a series of genes and transcription factors responsive to salt stress”.
